For 19 sequences, protein production results are on record in a protein production outcome set (Wang et al. 2014).

The nature of this series: label from the status in PepcDB records.
In the case of “MAAAPASDVCGGGSKKNCSGRRMSDAAPPVSSPPPRQKGLLGVVERLGNLLPEPVMIFVWLILGLMVLSAIGQALGWSASITYAGDEAPQFGELENGVLTYAASSLFSEANLARLFTEMPKTLTSFAPLGLVLVVILGAAVAERSGLFSALIRASLREAPKRILTPLVVIIGMVSHHASDAAYVVFIPLAGLLYAAVGRHPLAGIAAGFAAVSGGFAGNLTPGQFDVVLFGFTQEAARIIDPTWTMNPLGNWWYILAIVVVFTPIAWFLTDKVVEPRLGPWGGQADDALKAELAKSAVTADEKRGLKFAGLAALAIVALFAALSLIPGFTPLIDETKTGPAQLTPFYGALIAGFMMLFLAGGVAYGVGVGTVKTEGDVVNMMADGVRSVAPYIVFAFFAAHFVAMFNWSRLGPIAAIHGAETLKAMNLPAPLLLVSVLGFSSVLDLFIGSASAKWSALAPVVVPMFMLLGISPEMTTAAYRMGDSFTNLMTPLMSYFPLVLAMTRRWDPSMGVGSLLALMLPYALAFMVAGVAMTLAWVAFDWPLGPAAQVHYTPPGGLLK”, the protein production entry was “failed”.

Take “MAAERKTKLSKNLLRMKFMQRGLDSETKKQLEEEEKKIISEEHWYLDLPELKEKESFIIEEQSFLLCEDLLYGRMSFRGFNPEVEKLMLQMNAKHKAEEVEDETVELDVSDEEMARRYETLVGTIGKKFARKRDHANYEEDENGDITPIKAKKMFLKPQD”: the protein production result is given as “not failed”.

As for “MAAFTGTTDKCKACDKTVYVMDLMTLEGMPYHKSCFRCSHCNGTLVICNYSSMDGVLYCKTHFEQLFKESGNFSKNFQTAGKTEKSNDAAPNRLSSFFSGTQDKCAACKKTVYPLEKMTMEGESYHKTCFRCAHSGCPLTHSSYAALDGVLYCKVHFSQLFLEKGNYNHVLQAAANHRRSTAEEDKTEPKEDEANPTEEETSDAAAEEHES”, the protein production result was “failed”.

For the sequence “MAAGFSSKTTRDSPHLSEIRVVLLGNNDCDRRRVVRSVLGDLTGESVGQCTVYDGEESRRRIRVVDAPGWNSNTPQSKLRESIERSAMLCAPGPHALLLVLPVRRNEDMSAGDIKSGMKLVEMLSERAWRHTIVVFACDEGTGGFSCSQKAKIVLEKCKGRGFYLQRQGGIAQLFTQIEDLVRDNGEDDVFLPQAYHELFRRKTEGLLHRRGNLRKKPVHLSKSEAGALGVEPFSVIVIAVLAAVLVSLSFGAEYGVFGGCAGLLLGSILPF”, the protein production result is “failed”.

As for “MAAGKRDYYEVLGISKNASSQDIKRAFRKLAMQYHPDRHKAENETTQKQNEEKFKEVNEAYEVLSDEEKRKLYDQFGHEGLNASGFHEAGFNPFDIFNSVFGEGFSFGMDGDSPFDFIFNRSKKRQQQIVVPYNLDIALVIEINFFEMTNGCNKTIKYERKVSCHSCNGFGAEGGESGLDLCKDCNGNGFVIKNQRSIFGTIQSQVLCSTCNGQGKQIKVKCKTCRSNKYTVTNQIKEINIPAGMYSGEALVDESGGNEFKGHYGKLIIQVNVLASKIFKRSDNNVIANVLVDPMVAIVGGVIELPTLEGIKEFNIRPGTKSGEQIVIPNGGIKFSKSFKRKAGDLIIIISYARPCEYTNLELKKLREFIKPNQEVKQYLNTLKNEYKT”, the protein production result is reported as “failed”.

As to “MAAGKTHDKITVIMTPFIASFFLFINMIFLEDLGSSLAFTILGVSIYMFGGYMFSGDLDIKSREFRRWGYLKFIWIPYQKLFEHRSVFTHGFILGPIIRILYVSIIPITISSLLYSFSIINISTPEMLKLVFNFILKNKILFGNMALALFLGSGLHTITDMIYSYFKRKFSYKKRKSSKKYSRSKRPSRRAA”, the protein production entry is given as “failed”.

For “MAAKKDYYAILGVPRNATQEEIKRAYKRLARQYHPDVNKSPEAEEKFKEINEAYAVLSDPEKRRIYDTYGTTEAPPPPPPGGYDFSGFDVEDFSEFFQELFGPGLFGGFGRRSRKGRDLRAELPLTLEEAFHGGERVVEVAGRRVSVRIPPGVREGSVIRVPGMGGQGNPPGDLLLVVRLLPHPVFRLEGQDLYATLDVPAPIAVVGGKVRAMTLEGPVEVTIPPRTQAGRKLRLRGKGFPGPAGRGDLYLEVRITIPERLTPEEEALWKKLAEAYYARA”, the protein production entry is given as “failed”.

For the sequence “MAALSEKEAEAYLDARPRYPIDWFKKIAARTQDHKFAWDVGTGNGQAAIGLVEHYENVVATDINEAQLQRAIKHSRISYHHTPTTISEDEMVDLLGGENSVDLIVAAQAVHFFDLNVFYNVAKRVLRKEGGLIAVWVYNDIIISHEIDPIMKRLVDSTLPFRTPIMNLAFDGYKTLTFPFETIGMGSEGKPITLDIPHKLSLKGFIGFLRSWQPAMKAKEKGVELINEDLITKFEEAWGDETQVKDVFYKAHMIVGKIPEEKFESDQVLSNKGRLLLETEVGRNQKRPQPSDEGDRQSKKQNTSEDDACKDKPSSVFSTHYRF”, the protein production result is given as “failed”.

Take “MAALSNLKQCPPFSTLPDLALRHNHIPELERYPQINLNSELLANPAGQRYYGGQSFVSVNEGVLKRIARSFFNGGFWKTLEEARSPETREQAPLIAQAGDLIAQFLGLATGLRILPHTQQLSAERIAQFVETRDWLNSDVRYLAWNQHFFCLAVAGVDDVVRIYTKSSSATTATVLKSPSQTQITCMAWRPLCASEIVIGCRQGLCFWEVDSTLHLGRTNAPSEIFKYPNNLPITSMQWNKDGTQLATASIGDRSIIIWQPDTGMMQPLKRLGPPGSLLKWSPDNDWLFAATVDRVFRVWNCHQQWTTERWVCGPGGYVQTACWSPCGRFLLFVSSAEPILYRLQFVQQSLLSSSADEKEILPIADLNACSIDANRTLVGGPAQQLAWDPHGNYLVVTFKATNCIAVFRTFIQKFDLQISAAYYLSGETAAEHPSFICFQPLYEDNDRSVLTIAWSSGRIQYYAFD”: the protein production result was “failed”.

Take “MAAPLIPVLTAPTAAGKTALALRLAREYGLEIVAADAFTVYRGLDLGTAKPTPQERASVPHHLLDVVDVTQSYDVAQYAAQAEAAIVDILARGRLPLVVGGTGFYLSALSRGLPLTPPSDPKMRAALEAELQERGLDALLAEIEQANPAEAARMERNPRRVVRALEVYRAAGRFPGEFGYSPPAFQYQVFAFSPPAAEMEQRVQERTAAMLRAGWPQEAQWLAGQVPPEQEPRPTVWQALGYAEALAVAQGRLSLAGAEQAIALATRQYGKRQLTWMRRQLGAEVQSPDAAEAHLRAFLERSGAPSLEHHHHHH”: the protein production entry was “failed”.

For “MAAPSGVPPMRVLEELGINLSPTGEVTETEAVAAEGAYYLEQVTITETSEDECEYEEIPDDNFSIPEGEEDLAKAIHMVDEQATDTHILEQQTILPSRHVMQEAIEDFLCNFLIKMGMTRTLDCFQAEWYELIQKTGSDLRTLGNVPDVYSQVMLLETENKNLKKDLKHFKQAAEKAKEDLLKTQKERDFHRMHHKRILQEKNKLIADLKGLKLHYASYEPTIRVLHEKHHALLKEKMLTSLERDRAVGKISGLQATLKNIDIGHIQVPVIKGSYETASILRELGDKAGHTYEKENSSEGPTQKNLREAREENGYKTKMKSERKDSEFPVDMQPDPNLTACTESLPTAKFDYRLNNIFRLHELPVSCICTHSVRDTMILCSEVRMWAGVGMDSGSISITPSGISRWISGCCDHPNRSWLLTSNGNRTLSLWELPEGKCTLTLQSLCQHHHFIWSCSWHICSRCAAQSSYRSTPKVWFLSVERCRYTLYGHTDSVNSIEFFPFSNTLLTASADKTLSVWDARTSHCQQSLYGHIRNIHIVKFTTPRLRGHILASCDSRGVIKLWDFRKLIPIVSIDVGPSPGNEVNFDPSGRVLAQASANGIIHLLDLKSGQIHKLVGHESEVHTVIFSHRAENLYSGGSDGTIRLWL”, the protein production entry was “failed”.

For the sequence “MAASFAFLRDVRPYKTSWRVQVKVLHSWCQYTNMTGETLKLVLVNSQGVKIHASVKKDLVSKYVNNLPLNEWTFIETFALNHASGQFRPTGHLYKMSFVTGTQVIRCDS”, the protein production result is recorded as “not failed”.

Consider “MAASPKDPLDWAALLQLQMDEAFDFILRSEAGSVAECDLSPPVDIFETPDAFSVEFDLPGTDPADLSLKLCCNMLILEGVKRDDSREGGSYLCLERRFGRFCRTVEIPPTVDVSAVRADYRRGVLTVTFPRLSDRRKVMRDIPIIQGDN”, for which the protein production entry is recorded as “failed”.

Take “MADDDHIEAVLARLSRPQKLALVRGATDPEGTATGYLSGVEEAGIPPFRLVDGPLGIRAEGQRATAFPASIATAATFDPDLARQQGAAMGREAAALGQDALLAPGVNIIRVPHCGRNFEYLSEDPVHAGAVGAGLIDGIQSADVVATVKHFVANNQETHRTTVSTEVDERTLRELYLPPFRSAVDAGVGSVMTAYNRVNGTHMSDHGRLVGDVLKSEWGFNGYVVSDWYGLESTVGAANAGMDVEMPGVAAPGAAEAANSDTADDAEEFEWPDGIPDATRAGLFGDPLVEAIDSGEVPAERLDDMVRRVLGQMDRFGRLDGSRTAAEDGASDDQAGELDSQRHRDIAADVAARGTVLLDNDGVLPLADGADVAVIGPNIDEPKLGGGGSSETTPVHSVTPVAGIESRAEGAVTTAFGVPQIESVSLFDLLPFVGEDDDTDGTAADIAQQDPSLDDAVDAAAAADVAVVFVRDATTEARDRDSLALPGQQDDLVSAVAATNENTVVVVRSGGPVELPWREDVAAVLEQWYPGQADGDAAAAVLYGDRDPSGRLPVTFAPEGEYPTAGAERRYPGVDDEVHYDEDVFIGYRHFDDEDADPTYPFGHGHSYATFEYGDAEITGEWTVAVPVKNAADRPGREVIQAYVRPPSVDGVDRPRRELAGFEAVQLDADEQKTVALTLDDLAFSRYDPNSGWTVDTGTYTVEIGRSSRDIRTTVPVDR”: the protein production entry was “failed”.

On to “MADIRVTHEAQVTVISFPAVFQRLRETEVEQIASTFLAAMQGAQPRKVLIDLEGVEFFGSSFIELLVRGWKRIKEDQQGVFALCSVSPYCVEVLQVTHIDEVWPRYSTKQEALLAMAS”, for which the protein production entry is given as “not failed”.

“MADLFDGMKRRMDALIAERFGMKVNINGTDCIVVESDFLAELGPVEGNGKNVVVFSGNVIPRRGDRVVLRGSEFTVTRIRRFNGKPQLTLEENNGGKGA”: the protein production entry was “not failed”.

As to “MADRPHPYDRAPGGSSGSHDRTGVFRRNPDGGLPDRIDSLYRPEPAARSASDAAATRRLSRTSGTPPRRPTPRSRGRDSGGWERRERERRARRRKKAAVLVLVLLLLLPTVGYLWANSRLNRVAALVPYEGRPDDQPGTTYLIVGSDSREGLSDEDMEALRTGKAEGKRTDTIMVLYVPTEGRPAIISVPRDSYVEIPGIGANKINAAYAEALGGGPATLVRTFEQASGVRIDHYVEIGFAGFVDIVDAVGGVELCPEEAMEDPKAGLDIEAGCQVMDGPTALGYVRTRATPRADLDRIQRQREFFSALIQQATAPSTLFNPFRSIPLVLSGTSTFSVDEGDSLMDLAWLALAMRDSPATTAVPVGSTPTLDVGSVVLWDEARAEEMFAAMREGRPIPESAMQD”, the protein production entry is reported as “failed”.

As for “MADSSNKKKAASHESKKSNMEIMFSGSDSLTKRERRKKKQLIARSVGFALIGIEVIALIIFLAALFKLNMIPAKYMAMLIGILLLITVYNVLSQFTKAHWVGKVLAVLLAVVMFVGSSYIGKANSVISNIAGVTTKTDTFSLVVLATDPATGVEATKNYTFGYNKINNKDMAESLIQEVNTTLGTNVKTRTYDNWTNIINALYNNEVKVIVFNESNRAMLEEQFTDFEEKTKVIYTKTYTTQIKENVVNKNTATESFTIYVSGNDDYGAISANGRSDVNIVATFNPKTRQVLMVSTPRDYWVPVDTLSTDSNGKAVTGYEKLTHAGNYGVDSSISTLESLYGVDVDYYVKVNFTGAVGVIDALGGITINSDVKFTNGEDAAPVAYNFVVGPNECDGEKALAFCRERQAFSDGDNQRGRNQMAAIEGMIDKATSTAILTQYNKVLDAVSGLIATNMPDSAISNLVKAQINDPTGWNIMSYSVSGTGATKTGQLFGIVGMSVIEPDYSTVNTAIELMSKVRNGEVFDIDQFLEDKALESGTTQAR”, the protein production result was “failed”.

With “MADSTAMADAIWFGGPIVTIDAHTPSARAVAVRDGRIMAVGREHAVLRYRGPDTRMHDLRGATLLPGFVDAHSHVSTVGLEHHHHHH”, the protein production entry is on record as “failed”.
